Measured values from patent US20110076342A1.
Non-standard residues stand in square brackets, D forms with d. No end group written: not given here.

molecular target: full length PCNA's binding partners; assay: cell-based or functional assay

Row | % Dead Cells, MCF 7 (breast cancer) cells, 50 µM R9-caPeptide, 48 h, flow cytometry [%] | % Dead Cells, MCF 10A (non-malignant) breast cells, 50 µM R9-caPeptide, 48 h, flow cytometry [%] | apoptotic cells, U937 cells, 50 uM R9-caPep [%] | Binder | % cancer cell death, U937 cells, 30 µM peptide, 24 h, flow cytometry [%]
1 |  |  |  | RRRRRRRRRCCLGIPEQEA [R9-L133A] | 7
2 |  |  |  | RRRRRRRRRCCLGAPEQEY [R9-L128A] | 21
3 |  |  |  | RRRRRRRRRCCLGIAEQEY [R9-L129A] | 80
4 |  |  |  | RRRRRRRRRCCLGIPEAEY [R9-L131A] | 93
5 | 91.5 | 18.2 | 93 | [dR][dR][dR][dR][dR][dR][dR][dR][dR]CCLGIPEQEY (cysteine pairing not given here) [R9-caPep (D-nonaarginine linked caPeptide, …)] | 43
6 |  |  |  | RRRRRRRRRCCLGIPEQAY [R9-L132A] | 88
7 |  |  |  | RRRRRRRRRCCLAIPEQEY [R9-L127A] | 47
8 |  |  |  | RRRRRRRRRCCAGIPEQEY [R9-L126A] | 8
9 |  |  |  | RRRRRRRRRCCLGIPAQEY [R9-L130A] | 45
